The record followed here is the nanobody polyreactivity screen of Harvey et al. (2022).

A short description of the data set: yeast display, Sf9 membrane polyspecificity reagent, FACS + sequencing; frameworks hold sequencing errors. The method, boiled down: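 Synthetic nanobody libraries on Saccharomyces cerevisiae BJ5465 were galactose-induced for 36–48 hours, stained 1 hour at 4 °C with 10% biotinylated, detergent-solubilized Sf9 membrane reagent and enriched on streptavidin microbeads. FACS then separated cells into low and high (top ~1%) gates by anti-HA (expression) and streptavidin (reagent binding) fluorescence. Genes were colony-PCR amplified, MiSeq 2 × 250 sequenced and CDR-length filtered. A clone's polyreactivity label is that of its gate of origin.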
Take “QLQLVESGGGLVQAGGSLRRSCAPSGRILWVNAMGWSRQAPGKERELVAAISLSGGRTYYADSVKGRFTISRDNAKNTVYLQMNSLKPEDTAVYYCAARTVNYYYTTGDYWGQGTQVTVSS”: the “polyreactivity (PSR sort gate)” value was “low polyreactivity”.

Consider “QLQLVESGGGLVQAVGSLRLSCAATGSIFYPYAMGWNRQAPGKERELVASISWSGGITYYADSVKGRFTISRDNAKNTVYLQMNSLKPEDTAVYYCAADFSWYLYDYDYWGQGTQVTVSS”, for which the “polyreactivity (PSR sort gate)” value is listed as “low polyreactivity”.

Regarding “QLQLVESGGRLVQAGGSLRLSCAASGRTFGRYAMGWYIQAPGKEREFVSSISRSTGRTSYADSVKGRFTISRANAKNTVYLQMNSLKPEDTAVYYCAVRWYYYRDDTIYVLGRYDYWGQGTQVTVSS”, the “polyreactivity (PSR sort gate)” value is listed as “high polyreactivity”.

“QLQLVESRGGLVQAGGSLRLSCASYGSIFIWYAMGWYRQATGKERELVAAITSSGSTNYADSVKGRFTISRDNAKNPVYLQMNSLKPEDTAVYYCAAEYTYYTYNLNYWGQGTQVTVSS”: the “polyreactivity (PSR sort gate)” value is given as “low polyreactivity”.

As for “QLQLVESVGGLVQAGGSLRLSCAGSGRIFGRSAMGWYTHAPGKHRALVAAISRSGGSTYYADSVKGRVTISRDKAKNTVYLQMYSLKPEDTAVYNCNRRYITYNDDYWGQGTQVTVSS”, the “polyreactivity (PSR sort gate)” value is “high polyreactivity”.

In the case of “QLQLVQSGGGLVQAGGILRLSCAPSGSIFTPNTMGWYSQAPGKERELVAAITIRGGSTYYADSVKGSFTISRDNANITVYLQMNSLKPEDTAVYYCATEYGLRYYLVDYWGQGTQVTVSS”, the “polyreactivity (PSR sort gate)” value is “low polyreactivity”.

On to “QMQLQESGGGLVQAGGSLRLSCAPSGTIIRVRYMGWHRQAPGKDRELVAGINGGTTTYNSDSVIGRFTISRDNANNTVFLQMNSLKPDDTAVYKCAAGASRLTYYDYWGQGTQVTVSS”, for which the “polyreactivity (PSR sort gate)” value is “low polyreactivity”.

Turning to “QMQLQESGGGLVQAGGSQRLSCAASDSISIGAGMGWYRQAPGKERELVAGISVGTSTNYADSVNGRFTISRVNAKNTVYLQMNSLKPEDTAVYYCAKGYRRVYGPFYYWGQGTQVTVSS”, the “polyreactivity (PSR sort gate)” value is reported as “low polyreactivity”.

With “QQLQESGGGLVQAGGSLRLSCAASGSISGSVLMGWYRQAPGKEREFVASISLGGNTNYADSVKGRFTISRENAKNTVYLQMNSLKPEVAAVYYCAAYISLFETHPYWGQGTQVTVSS”, the “polyreactivity (PSR sort gate)” value is listed as “high polyreactivity”.

Turning to “QVDLVESGGGLVQAGGSLRLSCAASGRTFQFNGMGWYRQAPVKERELVAGITSGGSTYYADSVKGRFTISRDNAKTTVYLQMISLKPEDTAVYYCAKDDPYFRGSPYFGRYPYGYWGQGTEVTVSS”, the “polyreactivity (PSR sort gate)” value is “high polyreactivity”.

Take “QVELVESGGGLDQAGGSLRLSCAASGFIFRWYAMGWYRQAPGKERELVAAITRGTRTNYADSVKGRFTISRDNAKNTVYLQMNSLKPEDTAVYYCAADFSRDAYRNYYYWGQGTQVTVSS”: the “polyreactivity (PSR sort gate)” value is recorded as “high polyreactivity”.

As for “QVELVESGGGLVQAGGSLRISCDASGSTFRWYAMGWYRQGPGKERELVAAINRSGGSTYYADSVKGRFTISRDNAKNTVYLQMNSLKPEDTAVYYCEARWYSSSRWYKYNYWGQGTQVTVSS”, the “polyreactivity (PSR sort gate)” value is recorded as “high polyreactivity”.

For “QVELVESGGGLVQAGGSLRLSCAASGLTCVSYAMGWYRQAPGKERELVAAISRSGGSTYYADSVKGRFTISRDNAKNTVYLQMNSLKPVDTAVYYGNAYSYVDFCAVYRYDYWGQGTQLTVSS”, the “polyreactivity (PSR sort gate)” value was “high polyreactivity”.

For the sequence “QVELVESGGGLVQAGGSLRLSCPASGRTFYYYAMGWSRQEPGKERELVATITKSSGSTYYADSVKGRFTISRDNAKNTVYLQMNSLKPEDTAVYYCNADPWAKTPYYYWGQGTQVTVSS”, the “polyreactivity (PSR sort gate)” value is “high polyreactivity”.

Consider “QVELVESGGGLVQPGGRLRLSCAASGRIFRYNTMGWYRQAPGKEREFVAAITQRGVNTYYADSVKGRFTISRDNAKNTVYLQRNSLKPEDTAVYYCNAKRYSYWIYRAYDYWGQGTQVTVSS”, for which the “polyreactivity (PSR sort gate)” value is recorded as “low polyreactivity”.

Regarding “QVELVVSGGGLVQAGGSLRLSCAASGRIFYRYAMGWYRQAPGKERELVAAISGRGGSTYYADSVKGRFTISRDNAKNTVYLQMNSLKPEDTAVYYCNALPVYRSLAYEVDYWGQGTQVTVSS”, the “polyreactivity (PSR sort gate)” value is reported as “high polyreactivity”.

For “QVHHEETGGGLVQAGGSLRLSCSASGRTFVYYDMGWYRHATGKERQLVAAIDSSGSTYYADSVKGRFTISRDNAKNTVYLQMNSLKPEDSAVYYCGAGYWFFPYWYDYWGQGTQVTVSS”, the “polyreactivity (PSR sort gate)” value is “high polyreactivity”.

As for “QVHHVDSGGGIVKAGGSLRLSCPASGFIFPRNVLGWSRQEPGKERELVAAISRSGGSTYYADSVKGRFTISRDNAKNTVYLPMNSLKPEDTAVYYGGKRTFYNGEFWGQGTQVTVSS”, the “polyreactivity (PSR sort gate)” value was “low polyreactivity”.

Consider “QVHHVESGAGLVQAGGSLRLSSAASGRTFGSNTKGCYSQAPGKERELVAAITISGGSTYYADSVKGRFTISRDNAKNTVYLKMNSLKPEDTAVYYCATRLWGHGGGRTTSYMYNWRQGTQVTVSS”, for which the “polyreactivity (PSR sort gate)” value is reported as “high polyreactivity”.

As to “QVHHVESGGGLVQAGGSLRISCAASGAIFFFNTMGWYRLAPGKERELVAVITSGGSTYYADSVKGRFTISRDNAKNTVYLQMNSLKPEDTAVYYCNAYTWGVGSSLDDVGYWGQGTQVTVSS”, the “polyreactivity (PSR sort gate)” value is “low polyreactivity”.

Turning to “QVHHVETGGGLDQAGGTLRLSCAASGRTFCTNAMGWSRQAPGKEWELVAAISSSGGSTYYADSVKGRFTISRDNAKNTVYLQMNSLKPEDTAVYYCAKGWHRGVGFCYWGQGTQVTVSS”, the “polyreactivity (PSR sort gate)” value was “high polyreactivity”.

Take “QVHIVESGGRLFQAGGSLRLSCAASGFTFAYYAMGWYRQAPGKEREMVAAISRGGTSTYYADSVKGRFTISRDNATNPVYLQMNSLKPEDTAVFYCNAVKVGYSLYDFWGQGTQVTVSS”: the “polyreactivity (PSR sort gate)” value was “high polyreactivity”.

As to “QVHLEESGGGLVQAGGSLRLRCAASGFTFGHYTMGWYRQAPGKERELVAAITWRGGTYYADSVKGRFTISRDNAKNTVYLQMNSLKPEDTAVYYCNARFGQTVKGTYGRYYYWGQGTQVTVSS”, the “polyreactivity (PSR sort gate)” value is listed as “high polyreactivity”.

For “QVHLEESGGGLVQAGGSLRLSCAASGLTFQWNAMGWYRQAPGKERELVAAISYSGGSTYYAYSVKGRFTISRDNAKYCVYLQMKSLKPEDTAVYYCAARTYSQWLQRYRLLGQGTQVTVSS”, the “polyreactivity (PSR sort gate)” value is reported as “high polyreactivity”.

In the case of “QVHLEESGGGLVQAGGSLRLSCAASGSIFGDNAKGWYRQAPGKERELVAAISSSGGSTYADSVKGRFTISRDNAKNTVYLQMNSLKPEDTAVYYCATQIAWCTYVINPQMDFWGQGTLVTVSS”, the “polyreactivity (PSR sort gate)” value is listed as “low polyreactivity”.

For “QVHLEESGGGLVQAGGSLRLTCAASGFTFQLYAMGWYRQPPGKERELVAAINYRGSSTYYADSVKGRFTISRDNAKNTVYLQMNSLKPEDTAVYYCNAAQYYERFNHWGQGTQVTVSS”, the “polyreactivity (PSR sort gate)” value was “high polyreactivity”.

Consider “QVHLHETGGGLVQAGGSLRLSCAASGTISVTYNMGWYRQAPGKEREFVAGNSTGATTNYADSVKGRFTISRDNANNTVYLQMNSLKPEDTAVYYCAAHIYRKDHFYYWGQGTQVTVSS”, for which the “polyreactivity (PSR sort gate)” value is “low polyreactivity”.

With “QVHLLASGGGLVQAGGSLGLSCAASGRPFNGYALGWYRPAPGSERELVASITLRGGSTYYADSVKGRFTISRDNAKYTVYLQMNCLKPEDTAVYYCNARPNTRRYTFPYGNCGQGTQVTVSS”, the “polyreactivity (PSR sort gate)” value was “high polyreactivity”.

“QVHLLDSGGGLVQEGGSLRLSCAASGSTIYVYAMGWYRQAPGKERELVAAITWDGDRTYYADSVKGRFTISRHNAKNTVYLHMTSLNPEDSAVYYCNRDIGGTSVLDDYWGQGTQVTVSS”: the “polyreactivity (PSR sort gate)” value was “low polyreactivity”.

As for “QVHLLESGGGLLQAGGSLRLNSDASGSTFITYCIGWFRQAPGKERELVARITLSGGSTYYADSVKGRFTSSRDNAKNTVYLQMNRLKPEDTAVYYCATDFGWQYYVLDGYYWGQGTQVTVSS”, the “polyreactivity (PSR sort gate)” value was “low polyreactivity”.
